This note sets out measurements from paper doi:10.1101/2020.05.02.073981.

What all share (assay): EMSA
Background: A gel shift assay detects complexes by their altered migration in electrophoresis.

For series [1], the target named is T1, His6-MmfR (Streptomyces coelicolor A3(2)) (UniProt Q7APH7).
T1 sequence: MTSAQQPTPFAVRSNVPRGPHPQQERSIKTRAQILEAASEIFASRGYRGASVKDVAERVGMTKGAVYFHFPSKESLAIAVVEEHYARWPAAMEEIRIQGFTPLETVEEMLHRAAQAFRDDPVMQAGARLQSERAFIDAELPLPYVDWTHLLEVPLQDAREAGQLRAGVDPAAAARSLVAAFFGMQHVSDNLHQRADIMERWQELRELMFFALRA

The target of series [2] is T2, MmfR Y144F Y144F (Streptomyces coelicolor A3(2)) (UniProt Q7APH7).
T2 sequence: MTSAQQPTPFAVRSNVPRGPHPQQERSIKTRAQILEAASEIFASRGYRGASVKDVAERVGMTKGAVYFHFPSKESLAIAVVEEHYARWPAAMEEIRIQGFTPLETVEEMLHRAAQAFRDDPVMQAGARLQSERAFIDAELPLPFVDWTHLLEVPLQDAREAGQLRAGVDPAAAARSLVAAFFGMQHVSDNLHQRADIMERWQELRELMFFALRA

The target in series [3] is T3, MmfR Q130E Q130E (Streptomyces coelicolor A3(2)) (UniProt Q7APH7).
T3 sequence: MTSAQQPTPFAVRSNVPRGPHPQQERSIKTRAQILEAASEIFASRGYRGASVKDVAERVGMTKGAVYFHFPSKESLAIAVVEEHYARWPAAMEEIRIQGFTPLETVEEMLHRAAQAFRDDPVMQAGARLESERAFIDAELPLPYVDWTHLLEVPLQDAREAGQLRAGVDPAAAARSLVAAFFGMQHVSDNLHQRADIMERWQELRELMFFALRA

The target of series [4] is T4, MmfR Y85F Y85F (Streptomyces coelicolor A3(2)) (UniProt Q7APH7).
T4 sequence: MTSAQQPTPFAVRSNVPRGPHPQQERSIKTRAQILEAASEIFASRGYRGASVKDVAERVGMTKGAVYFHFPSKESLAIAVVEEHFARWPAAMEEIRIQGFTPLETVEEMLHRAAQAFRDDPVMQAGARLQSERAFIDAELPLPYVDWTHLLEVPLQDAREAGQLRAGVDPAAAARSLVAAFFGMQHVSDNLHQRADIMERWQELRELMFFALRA

The target of a further series is T5, His6-MmfR (Streptomyces coelicolor A3(2), UniProt Q7APH7 1-214).
T5 sequence: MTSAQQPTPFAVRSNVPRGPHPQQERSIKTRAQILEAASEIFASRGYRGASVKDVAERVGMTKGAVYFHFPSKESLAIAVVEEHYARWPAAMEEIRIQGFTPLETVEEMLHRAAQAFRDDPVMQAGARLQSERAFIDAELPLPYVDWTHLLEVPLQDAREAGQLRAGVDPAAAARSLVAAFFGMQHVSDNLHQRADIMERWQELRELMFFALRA

In the case of “GGCGCCTCACAGTGTCAAACCTTCCCGAAGGTTTTTTATGACTCGTAACGGAGAGTTAAACCGGGGCTTACGAGAGCGGCGGGGCCTCGGTGTTTGGA (double strand) [mmyB-mmyY internal fragment, 98 bp]”, in series [1], the binding entry is recorded as “binds”. Same read-out and setting: next, “GGACCACCGGCTGGCTTGCCGCGCTGCAAGACAGCCGGGATCGGTAAGCTGACCGAGAGAAATATACCTGCGGGAAGGTATTATGCAATGGGTTTCCGTG (double strand) [mmfL-mmfR internal fragment, 100 bp]”: “binds”; “GGCGCCTCACAGTGTCAAACCTTCCCGAAGGTTTTTTATGACTCGTAACGGAGAGTTAAACCGGGGCTTACGAGAGCGGCGGGGCCTCGGTGTTTGGACCGCAACTCGGCGGGGCCCTGGTGCTGAGAACACCACGTCTGAGGCCCCTAGCAGAAGTTCGCTCTGGCAGCCTTCGCACGACCCTGCCGATACTCGCCAGCGATCCGAACCACTCGCCGAAGGAGTTCACC (double strand) [mmyB-mmyY intergenic region, 230 bp]”: “binds”.

“GGCTGCCTTCCTTCGTGTGTGCGGGCCCTGCGGGCGCCATGCTGGTGCGACCCGGGTCGGCACGGAAACCCATTGCATAATACCTTCCCGCAGGTATATTTCTCTCGGTCAGCTTACCGATCCCGGCTGTCTTGCAGCGCGGCAAGCCAGCCGGTGGTCCCGTACGAGGACACACCGGGAGATGTAGCGCCCCT (double strand) [mmfL-mmfR intergenic region, 194 bp]”: the binding result in series [2], in series [3], in series [1] and in series [4] was “binds” in each case.

B1: MARE2 hairpin (structured_DNA)
DNA: GCAAAAAACCTTCGGGAAGGTTTGACGCGAGGCGTCAAACCTTCCCGAAGGTTTTTTGC
As for B1, the binding result with His6-MmfR is recorded as “binds”.

B2: MARE1 hairpin (structured_DNA)
DNA: GCAATATACCTGCGGGAAGGTATTATGCGAGGCATAATACCTTCCCGCAGGTATATTGC
On to B2, for which, in the series with His6-MmfR, the binding result is recorded as “binds”.
